Assay results from the NTF2 design screens of Basanta et al. (2020).

Test: protease stability score; higher = more stable; yeast display proteolysis, trypsin and chymotrypsin;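 note: relative to predicted unfolded state with 0 unfolded-like and 1 meaning tenfold more protease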

TEMLEEALRFVEQLIKAILTGDESVFRNLVDPNAKNEIDGVEIHGWEFLNVFHKRYDHVTHLHFVLRSVRVYGDKLEMHGVVEIHGVIDGQERNFEVDTEIHVEKINGQWILRSLYVR
protease stability score: 1.11

TEMNDEARRAMKDFIEHLRTGDEDRLDKMLDPHVRMEINGRTFHGREDAIKWHREIRLEDITVKFSTIQGDKVRFFGEEDGIIDGQRHKTEVELIIRKVNGRWFIHEIQVH
protease stability score: 1.27

TENKRDLDLLIKLHLYLHKTGDWERLFKLMDPHARLEVGDFHIHGREEVIRWFVELMERVKNMRFDLQDRKVEVQGEKVIVRSDVEVNIDGVVIRVYLEVDSIKVDGKWHLHSERIELR
protease stability score: 1.29

TEQDEIAERVAREIMTMLLTGDWQRLRELADPHVRTIIDGVHVHGWDRMIEVLEVLHREIRIHDIREHSIKVYNGRVEIITHNDGEIDGQRVESSERHDIIIVNGRIKTIRLDIR
protease stability score: 1.34

TEQEHDMERLIEILIHSWRTGNEDELRRQIDPNARIDIGDKHFHGREFAIKHLSELRIKDFKLQHLDVQGDKVNVEGHLEGEINGRDDRYRYWIFVSKVNGQWFVERFHIV
protease stability score: 1.5

TEQMEWVEDIVRILVESINTGDEHVLKEMLDPNVRIHIGDKNVIGMEFIHRWLKEIRIEHLRVEISDVRFIGDKVKVRGRLKLHVDVDGRRHDVSHDVIIVFEKVDGKWFEREDRLL
protease stability score: 1.23

TERDEHIEEMTDEWIELLFTGDEESLKRLADPDMRVNFNGVEIHGMHNFMRWVLHVLEHWRIEVKIHHKEVQGDKIRVELKQNIHFNGRDIHRDNREHIFVVNGVNKHVILIYR
protease stability score: 1.43

TERDEHSRKMAHALVENFRTGDFETLHDLFDPRYLVILYIDGVDIRLHGREDFLRELKLINDRLGVDRVNLSVKHMEIQGDKVIMHFEEHQGDKTRRSEIRLEIINGRLRTSEWWIH
protease stability score: 0.788

TERDELMKRFAHIFYHWLETGDEESIKKMLDPDTLSIVDGVNLHGRDEHSRWHVELHENLGIDQIHYRLRRVEVQGDKARIDGEEEINGKHVKLRIELEVINGRIKDIRVSVR
protease stability score: 1.45

TERDMFIETYIQIFIEHVRTGDEEALARLADPNVRIRVGDKHLHGWHELRRFFHEWRVKDLDFRDYRYYDGRVEIRGFERVEFNGQERDMEVIFHFVKINGRWYLEETEIR
protease stability score: 2.32

TEREEDVKTAMDHLYEIIETGDWKEIHKLIDPNAKVHIDGRNLIGRELMTKIIEEMSEKYKNLRLELTHFEVQGNKVISHTNNRFDGREVRTLMILTKIDGRWIIHSINLE
protease stability score: 1.11

TEREEENRIARQLFEHDWETGDEDSIHRLADPHALLTDENEKLHGREDVTDWIIKVSRKYKNLQFRVTDQELQGNKLIIYSTSKYNGRTFHLIFFVLKVDGRWHFHHMRIE
protease stability score: 1.36

TEREEEVHHVQRLEWEALRTGNEEYLLRLIDPEVRIRQGDKTLIGREALNLHLKKVKNLQFRDIKLRDFDVQGEKIHLHTELIGEVDGRELKIDIDIHVKKINGRWVIDSFHIN
protease stability score: 1.32

TERHEHVLHLLNLFLEEWLTGDWDKFFRLADPNVKYFINGQDIHGRETIRENHEQKWRELRIREIRVHSVDVVGDKAHADITENLEVNGREIRTRSHLDIVVVNGRVHHVRMHVD
protease stability score: 0.544

TERREVVEQLLRHFFQSTITGDWRDLEHYIDPNARNIVNGKITHGREAITEYYMRFDYFHVDDIIIRERDVIDGQAHLRVEIHGQIEINGRKNRFETHVEIIILKVDGRWVWRSFDIR
protease stability score: 1.33

TESEEDAEWAFRILEHVLETGDEHLLRVLLDPHVRVHIDGRNIHGRENVIRELTEIRIHVEMHLEHVDLQGDKMHIDLRVHIIIIFNGQEKRRTHRMEMIVFKYDGKWFINEIHFH
protease stability score: 1.37

TESEFMKEYANKHLTRHLETGDWKDFQRNVDPNARVDFNGVELIGREHAIKLFHEIRIEHLEIHDVKMQGDKLEVDGILHTRQGDKRHDLKVIIHMLKVDGKWVITEIEVR
protease stability score: 0.948

TESEKEAHDAVKRSIDSWLTGDEHDMAELLDPNVRLEIGDKTFIGREEFVKWLKDVREKFKGVRLHIRDYRVHVVGDKVRVEIDIQEDYGDKFHDVTLVFILRKIDGRWHNQSVEVRIE
protease stability score: 1.58

TESEKLSRIVIKLLIESTRTGDERILHELVDPNVKLNVNGRELHGWEEMVKIHKQWRFHDLEVDSVRLIGDKMEIDTTIHGTIDGQKDNIDVRIILEKVNGRWVLREVHIK
protease stability score: 1.58

TESEKMALIAIEIIFHDLLTGNEESLIKLADPDVQLHYGDKTFHGREEFHKLYSEIIKRYDHIEVLIRDIRVQGDKMHVKEELNLVINGKTVHLESNRTSLKYNGRWHLKSVHLH
protease stability score: 1.26

TESEKSAHEFLELFEKSIVTGDEDNLDKMADPNVQTIINGREFHGREEMVKAFREIWNIMGVKHIEIRLKQIDFQGEKISVDSRLHIDVNGKRIDHSMTIIFRKINGRWVLESINRD
protease stability score: 1.34

TESKQEEHLALEVIEHAYRTGDEHELHELLDPHTRIFIGDKTHHGREFYLRVLKRERDELGVDKIEIIIRRVEIQGDKMIMDGELRVNGKTVRVHLILRKYDGRWLIKHITHE
protease stability score: 1.47

TETERHIEEHLRQMVHQLRTGDFERFEDLADPNMRIDVDGKEFIGREAVDRFWRRVDVIHDLDFKDMEIQGNKVVLNVRIIGNINGVHDHTEQHIVVFKINGRWYWHSIEVH
protease stability score: 1.16

TEVEKKAREINKELSSALLTGDEHIMRRLADPHVRIFFNGQHLVGMEEMMKVLLHLRIKWKDIKIEDVKIQGDFMHIDTIEHGILEVGDKRIEFHREVEIYITKINGRWMIEELTYR
protease stability score: 1.34

TEYEEHMKKMNEEILHSWITGDEDTLQHLADPNVRVEINGQETHGREQLYNTFHKAGFKHWEFDSIRFQGDKSDIRGQFEVDGQLREMEVEMRIVNGRLKIVRLDIR
protease stability score: 0.977

TEYEHLMEYIVRRFLEVLLTGDERELDRLADPHVIHHMKQGDKSWSLHGMELLSEVSRHWRDEIRIKRVEIHDLKNIGNWSDMYSTVHLRYNGREEVVEVRLHIDVYNGRVREVEIRIH
protease stability score: 1.12

THDEEVIEIMMDHLREQIHTGDFTSLLEQLDPHARSDVDGREFHGREIVAHVWFHLRVKHVRIDHVDIVNGKIRVDSWIQGRINGRETEYEVILRAHKVDGRWRVHSYEIR
protease stability score: 1.72

THEDEIFKEFERILREVDETGDEHDIKQYLDPNTKFHINGRDLIGMKVVTEFWRELLQKYKNLTINRRIRHVEVYNGRVHIHGHLSLHYGDKDIRVDVHIQAIKIDGRWHLQQEHYL
protease stability score: 1.15

THEEEIFRRIAELIIDALTTGDEQLLRDLADPHVRQILIIDGREITVHGREEVFELLKEHIDELRIHRVNIEHMDVVGNKVTLDGRMDGYYGDKRTRLEFRIHIDIVNGKLKELTITMR
protease stability score: 2.16

THEEELSREATRFMLHVLMTGDPTLTEEQADPRTRVVVGDKELHGMEHLSKWYEDHWRQYPNVRIEFKRTEVQGDKMFLDGRLKVNGRETHVFILAFKINGQWVLEEIRFK
protease stability score: 1.59

THEEEQARRALKHLIELEKTGDEEKWSHLADPNVRMEINGRQVHGRETIRKIYHEWRRKLGVNHIHHIEIKHIDIQGEKLRVEMHVNSQYGDKTLLIETEIELDKIDGKWIITMHYER
protease stability score: 1.15

THEEHFDERVARHLHENFLTGNEDIFEHLADPHTRIIIVQGDKMIHFHGWEWFAMKMLEDLHRIKGIRITLRHINIQGDKWILEMKVDIGDKELETEIIIHVINGKIESVRIIIR
protease stability score: 1.35

THEERLYREAMELEREVWETGDEHLIRDMVDPNVRFEINGVNTHGREEMARFVHEFGVDHIHIDHLQRINGRLEVRGKFQVGDKWVRTRFISTKINGRWFVESVHVR
protease stability score: 0.626

THEQKLSHEITHIFWEILKTGDEHEMRRLADPNVQLEINGVERHGMHVLEHWLVHLGIDHLHVTDHRVQGEYSYWDTTLRVGDKERTIHLEVLAFNGRVKAFRLHVR
protease stability score: 1.22

THEWREAREMIEVFLERIETGDEESLERLLDPHVRVHINGKDFHGRDEAIRKLIEMRHHSIHLKHINVQGDKVHNFGEWIVDFDGKKHTHKMILYISKVNGRWLIDSIHVE
protease stability score: 0.98

THLHDQVHKAVEDVERDLMTGNEERLYKLLDPNVRIEYNGQDLHGREIAIHFLIRISNHWRFEDLHIESMNVQGNKATIHSRYVRHIGDKREETHVHLYMVKINGQWFIHSMSFS
protease stability score: 2.25

TKDDEDRKHFEKLLRHSLETGNWHDMQRNADPNVRLNVNGVEIHGMDTAYELWVEELNRADHIEIHMEHSTRVGDKLHLDVNVIMKQGDKHIERRVRLVVLKINGRWFIHSVHVH
protease stability score: 1.1

TKEEDLMELALRIIERVNETGDEQELHDRLDPHTQIEIGDKNEHGWEHIVHVMRHIRIEQIRFRDRRVQGDKVHVFVESEIRVGEKQLHVKVDIYVWKFDGRWIMTRMRVE
protease stability score: 1.33

TKEEEESRHWSELMFHLEETGDEEILKDLADPHVKIHVNGVHLHGMEKLEEWRRRLGITKFDSHLHDFRVQGEKMHNIVHLHINGQKIDAHIIIIIVDGKITRIIIRIT
protease stability score: 0.75

TKEEELAHRALHEWINDINTGNEEEFKELVDPNARMLVDGRHHHGREHVINVFIHLIRKVKNLTVDLDEIEIQGDKVTVIGILRVDGREIHITIHSRKINGRWHFEDIVWE
protease stability score: 1.6

TQEKREADHSNKLEEHSHQTGDERLLTELADPHVKIFVDGQELHGREEFLRWVEEAGVKHFHVDHVRYQGDKLFVHGHFNINGREREVRLIYRKVNGKWYLHQMDIN
protease stability score: 1.23

TSHEHELRRVAEEIIHAYLTGDWWRWERLFDPHVRVETQVGDKRIERHGREDLIRFLNEMRVHRIEIKTRELYDGRVHIHSRMDYEVDGQRDDVDLHLHFHIVDGKVEEVVITIK
protease stability score: 1.47

TTEHAATLFLTSMITGDWEWISRLFDPHVRLVFNGVTNVGRELAIHKLVETVLKLGVKHTHIDEMRLYGDKVEVHVTLRVGDKTTNIDIEVDWVDGQVKEVHIDTRTEDTSKILKHVYK
protease stability score: 0.109

VEDLQLAEHVTRLLLHLVHTGDFDVMKELLDPNVRIHVDGQDYHGRDVWKHILDRFDYISVHHSEVKENDVQGNKVNIRVHTDVIFEYGDKRLRQRYDVVVIAQKINGRWIIELFSVR
protease stability score: 1.22

VEDLREYIRIAEELVKSWITGDWDRLRKLVDPNVRLDVDGVENIGRDHVHRALEEHEKHIRLKDHRIEHIDAVDGKSTMHTRSHFHINGVEHEVNVHMEFVIVNGRVTEMRISIR
protease stability score: 1.02

VETEERLHDIVHSIIRLDETGDEQDFDRLVDPNAKFDIDGKELHGRDNFRHMWARYRRELGVDHIQFKHVFIQGDKIHQERRVTIGDKTYNMHVDLVVIDGRIQHVRYRIR
protease stability score: 1.56
